Each block holds one molecule with its values, some of them ahead of it.
What was measured:
[1] = target: RNF4 C55S, C59S tagged with glycine-cysteine at its C terminus (RNF4-C196); experiment: cross-linking; disulfide dimer formation of RNF4-C196; 0.062, 0.12, 0.25, 0.5 and 1 μM protein, room temperature, 2 hr, no reducing agents, no SUMO; nonreducing SDS-PAGE and western blotting with an RNF4 antibody; the species is sensitive to DTT
[2] = target: T1, RNF4 wild type, recombinant, with N-terminal fusions of ECFP or YFP, O88846; experiment: FRET or BRET; in vitro FRET in the absence of poly-SUMO-2; YFP-RNF4 fixed at 0.5 μM, ECFP-RNF4 increased in 0.05 μM increments from 0 to 0.5 μM; triplicates; fit to a single binding site model; monomer to dimer; conditions: remark: other sources report otherwise
T1 chain: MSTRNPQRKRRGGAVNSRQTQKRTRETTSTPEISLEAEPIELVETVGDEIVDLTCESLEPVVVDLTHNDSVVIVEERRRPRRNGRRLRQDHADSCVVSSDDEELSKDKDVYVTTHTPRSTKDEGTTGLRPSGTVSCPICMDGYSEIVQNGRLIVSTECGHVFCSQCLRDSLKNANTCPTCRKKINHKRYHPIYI

[3] = target: T1, RNF4 wild type, recombinant, with …; experiment: FRET or BRET; in vitro FRET in the presence of poly-SUMO-2; YFP-RNF4 fixed at 0.5 μM, ECFP-RNF4 increased in 0.05 μM increments from 0 to 0.5 μM; triplicates; apparent Kd from a fit to a single binding site model; conditions: remark: other sources report otherwise
[4] = target: the molecule itself; experiment: FRET; with polySUMO-2

stoichiometry N [1]: 2
Molecule: RNF4 C55S, C59S tagged with glycine-cysteine at its C terminus (RNF4-C196) (enzyme)

Kd [2]: 180 nM | Kd [3]: 60 nM
B1: RNF4 wild type, recombinant, with N-terminal fusions of ECFP or YFP, O88846 1-194 (enzyme)
chain: MSTRNPQRKRRGGAVNSRQTQKRTRETTSTPEISLEAEPIELVETVGDEIVDLTCESLEPVVVDLTHNDSVVIVEERRRPRRNGRRLRQDHADSCVVSSDDEELSKDKDVYVTTHTPRSTKDEGTTGLRPSGTVSCPICMDGYSEIVQNGRLIVSTECGHVFCSQCLRDSLKNANTCPTCRKKINHKRYHPIYI

B2: RNF4 I194A, dimerization-deficient mutant, recombinant, with N-terminal fusions of ECFP or YFP (enzyme)
chain: MSTRNPQRKRRGGAVNSRQTQKRTRETTSTPEISLEAEPIELVETVGDEIVDLTCESLEPVVVDLTHNDSVVIVEERRRPRRNGRRLRQDHADSCVVSSDDEELSKDKDVYVTTHTPRSTKDEGTTGLRPSGTVSCPICMDGYSEIVQNGRLIVSTECGHVFCSQCLRDSLKNANTCPTCRKKINHKRYHPIYA
Kd [4]: 166 nM
